Results on one molecule are retold here after paper PMC9907809, “Conformational rearrangements in the sensory RcsF/OMP complex mediate signal transduction across the bacterial cell envelope” (PLOS Genetics, 2023).

The test deals with T1, OmpA ( (endogenous in the host …, UniProt P0A910 22-346)).
T1 construct: OmpA, outer membrane protein; source: endogenous, in cells / DDM-solubilized membrane fraction
T1 sequence (looked up): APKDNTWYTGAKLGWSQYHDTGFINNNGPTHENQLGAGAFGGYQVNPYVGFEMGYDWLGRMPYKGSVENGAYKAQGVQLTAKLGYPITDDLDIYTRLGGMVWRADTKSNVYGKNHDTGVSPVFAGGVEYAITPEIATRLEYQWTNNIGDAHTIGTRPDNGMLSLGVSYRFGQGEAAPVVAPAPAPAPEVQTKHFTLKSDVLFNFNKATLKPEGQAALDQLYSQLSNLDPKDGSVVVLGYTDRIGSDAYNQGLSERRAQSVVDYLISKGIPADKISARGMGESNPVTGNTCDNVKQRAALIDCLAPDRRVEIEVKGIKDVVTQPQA
In words: cross-linking; in vivo formaldehyde crosslinking; OM version of RcsF variants with endogenous OmpA (and BamA); immunoblot of whole cell lysates probed with α-RcsF, RcsF/OmpA band quantified relative to the WT. The settings on record: partners not purified.

B1: RcsF(A55V), OM version (natural protein, UniProt P69411 16-134, looked up)
chain: CSMLSRSPVEPVQSTAPQPKAEPAKPKAPRATPVRIYTNVEELVGKPFRDLGEVSGDSCQASNQDSPPSIPTARKRMQINASKMKANAVLLHSCEVTSGTPGCYRQAVCIGSALNITAK
modifications: lipidated N-terminal cysteine (residue 16)
notes: RcsF, sensory outer membrane lipoprotein; mature RcsF = residues 16-134 (NTD 16-48, CTD 49-134); also called GOF[OM] variant; source: expressed from the low copy number vector pZS21 in a ΔrcsF strain; in cells
Take B1: the “percent decrease of RcsF/OmpA complex relative to WT” value came to 50%.
